Experimental findings from publication PMC12406269, “Identification and characterization of nanobodies specific for the human ubiquitin–like ISG15 protein” (The Journal of Biological Chemistry, 2025) are described below.

This assay has as its target T1, human ISG15 (1-157)-SBP-His (human, UniProt P05161 1-157).
T1 construct: human ISG15, residues 1-157, cloned into pET30b; also called hISG15-SBP-His; human ISG15-SBP; source: E. coli BL21 (DE3), purified (Ni-NTA, SEC); not shown: His, C-terminal, kept
Kind of assay: SEC; VHH and ISG15 mixed at the indicated molar ratios (1:2, 1:1 or 1:1:1) at 20 μM in 500 μl TBS, 20 min at room temperature; Superdex 75 10/300, fractions on SDS-PAGE. The following applies: both partners purified.

T1 sequence (P05161 1-157): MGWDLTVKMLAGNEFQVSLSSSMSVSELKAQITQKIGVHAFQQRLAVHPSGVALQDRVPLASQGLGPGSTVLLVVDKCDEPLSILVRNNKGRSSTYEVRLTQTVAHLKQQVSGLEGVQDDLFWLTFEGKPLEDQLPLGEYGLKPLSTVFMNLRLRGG

B1: VHH_(ISG15-A)-HA-His (VHH)
VHH: QLQLVETGGGLVQAGGSLRLSCAASGRTFAGLSVKWFRQPPGAEREWVAHITSTGSSTHYADSVKGRFTISRDYDRNMVYLQMSSLKPEDTAVYYCHASTLWPEKHQDYWGQGIQVTVSS
notes: VHH domain; also called VHH-A; source: E. coli WK6, periplasm (osmotic shock), purified (Ni-NTA, SEC); not shown: LPETGG sortase motif, C-terminal, kept; HA, C-terminal, kept; His6, C-terminal, kept
As for B1, the binding result is listed as “binds”.
